Results as given in publication PMC6682550.

Molecular target: 6xHis-tag M1 protein from Influenza A/FPV/Rostock/34, labelled with Alexa Fluor 488 (M1-Alexa488) (Influenza A virus A/FPV/Rostock/34) (UniProt P03487)
Assay: […], pH 7.4, NaCl ~45 mM; […]

With “6xHis-tag M1 protein from Influenza A/FPV/Rostock/34, labelled with Alexa Fluor 488 (M1-Alexa488) (from UniProt P03487 1-252) (natural protein)” the stoichiometry N was 15.
